According to the supplement of paper PMC12764529:
± gives the half width of the 95% confidence interval.

Experiments:
[1] = folding stability dG unfold (combined trypsin and chymotrypsin); higher = more stable
In short: (§1)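 Only designs with AlphaFold2 dimer inter-PAE above 15 were retained; each was a mini-protein under 80 residues with no cysteine, in a PA-tagged cDNA display construct. After digestion with trypsin and chymotrypsin and sequencing, K50 was inferred by Bayesian fitting of counts, and unfolding free energy was derived per protease or combined against a sequence-predicted unfolded-state K50 and a shared folded-state K50.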

[2] = folding stability dG unfold from chymotrypsin proteolysis; higher = more stable
In short: as §1

[3] = folding stability dG unfold from trypsin proteolysis; higher = more stable
In short: as §1

| Sequence | folding stability dG unfold [1] [kcal/mol] | folding stability dG unfold [2] [kcal/mol] | folding stability dG unfold [3] [kcal/mol] |
| --- | --- | --- | --- |
| SASPALELAKEIAEKIEPLFPDISPVEVTVTPRGSTALGTIKFKRPDGKELVAKMIVSAGGDPVEIILLSAG [r14_719_JUSTAS] | 1.51 ± 0.21 | 1.26 ± 0.25 | 1.56 ± 0.14 |
| SSMTLVTVEMEITLRTPEGGSETLKRTFEREVSPDDPAAVEAAVEAAKEEIREAHPDVVEVRVVKVDTALSA [r9_436_JUSTAS] | 4.41 ± 0.046 | 4.459 ± 0.039 | 4.06 ± 0.089 |
| SAGGSAGGSYWFSITFKINFWVIDGNRIHPVPIEITILIKIPPIPPDEMKPEPTPDGEPKYDFSAGGSAGGS [r12_1031_TrROS] | 4.29 ± 0.23 | 4.64 ± 0.2 | 2.73 ± 0.15 |
| SAGGSAGGSAKVVVDEVEVEVFKNEDGEEVLRVRFKKTGEEVEIPLEDLEKLELPPGAVVEPSAGGSAGGSA [r18_288_TrROS_Hall] | 1.41 ± 0.07 | 1.84 ± 0.05 | 0.246 ± 0.035 |
| SAGGSAGGSADDEVVEIVDVLPLPNRPVLVVKVRGPDGQTKVYDPATGKWLTPEEAKAALSSAGGSAGGSAG [r3_206_TrMRF] | 1.61 ± 0.086 | 1.98 ± 0.045 | 1.09 ± 0.032 |
| SAGGSAGGSAGPGVLILRRRFVRPRLIPNTGKLYYEEVELTTNLPIGPIPPNWLNNPNGVSAGGSAGGSAGG [r17_493_TrMRF] | 0.0971 ± 0.14 | 0.0547 ± 0.11 | -0.0517 ± 0.15 |
| SAGGVEEIVEKLPEEAEEVEITSEPHPLPGSTLTKYTIKAKNSATGKTKTYEVTVLYDPEGNVLEVLLSAGG [r13_358_JUSTAS] | 2.22 ± 0.19 | 2.74 ± 0.082 | 1.7 ± 0.061 |
| SAGRIEIDKIEPGKPVRIKIKIEMPDPNGKKRKMDFTRRVRVDPENGMIYIPITMPNGRPIPIMINVKKSAG [r5_743_TrROS] | 0.619 ± 0.29 | 0.552 ± 0.43 | 0.313 ± 0.23 |
| SAGGTATLVIPRIYKGSPEEAARAVQEIADALAALGYDVEVDATVYPVGDYLVVTVTVTVTAPPDSPLASAG [r5_217_TrMRF] | 2.63 ± 0.15 | 2.82 ± 0.046 | 2.62 ± 0.099 |
| SAGGGNVTKTSTTTLPNGTTLVTYTGTSPSSAGSKNLSLLSLPFDVTVTKVEFDPNTGKVTIETVIPPSAGG [r13_413_JUSTAS] | 0.978 ± 0.13 | 1.25 ± 0.14 | 0.516 ± 0.059 |
| SAGGKEIYVVRIEVYYPSNGKVEEKEYVIEATPEEAEELAKKIAEAFKEEAGEEVEVLRVEIKVYDLSAGGS [r16_140_TrMRF] | 4.65 ± 0.12 | 4.68 ± 0.072 | 3.82 ± 0.22 |
| SAGGSAGGSASSSTFPRRNYTVTITTDPSNGKKTVTVLNPATGEATTLTPEELEADPVLAEAVSAGGSAGGS [r12_817_JUSTAS] | 1.51 ± 0.043 | 1.8 ± 0.021 | 1.05 ± 0.017 |
| SAMRIEIVRDPETGELVVRVVLPREEAEEAAEELARRLAEAGLEVEVKVVRIEETDGETRVVVEIKVKPSAG [r14_345_TrROS_Hall] | 3.3 ± 0.1 | 2.88 ± 0.061 | 3.74 ± 0.11 |
| SAGPPGQPIKPIDITVKPEENTITIKFGDKNLEIPIPPGVEADIWVYPDHIVITIEFPDGKIVTIVLPFSAG [r5_21_TrROS] | 4.33 ± 0.26 | 4.46 ± 0.19 | 3.73 ± 0.31 |
| SELEDMTPEQLRERIRELLEELREERPGEEVEITIEELLERLPGMSREQLAEILGLTEEELENRTITIRASA [r9_525_TrROS_Hall] | 2.35 ± 0.14 | 2.47 ± 0.085 | 2.08 ± 0.11 |
| SAGGWRYILRQIREAAKNGEEVTINFPPGMNPSFLLSWIRKENGAEVKPITVKPNPNGYGTINIKVKSAGGS [r16_318_TrROS] | 1.8 ± 0.073 | 2.02 ± 0.057 | 1.39 ± 0.054 |
| SAGGSAGGMPVEVTETPVGTFPDGSTVTRTETVLPGGEVLVETTVTYPDGSSTTTTRRVPPELASAGGSAGG [r6_263_JUSTAS] | 2.43 ± 0.092 | 2.41 ± 0.059 | 2.39 ± 0.084 |
| SAGDADEDPVLVVFVRTEERPLVVVRRVEPDEDPEEVAKELAAEIREKLGPDVEVFVEMVRREDAEKLFSAG [r5_583_TrMRF] | 2.42 ± 0.11 | 2.44 ± 0.039 | 2.27 ± 0.052 |
| SAGGSAGGSAGMPIEKALEQADKNGRPVQIRVPNGRDIYITVKYKNGKYKIEIMPAEEIKSAGGSAGGSAGG [r17_463_TrROS] | 1.51 ± 0.18 | 1.89 ± 0.085 | 1.09 ± 0.047 |
| SSVTIPFKITDPNTTIAEIAERVRELLPESLGELSVTVTFSDGTTLNVTPGENLSKYYSPDDELTITVDAPS [r1_56_JUSTAS] | 1.27 ± 0.11 | 1.23 ± 0.11 | 1.29 ± 0.034 |
| SAGGSAKKVRIEIERNADGTLRITVTLPDGTKKEITVDKPGMTLEEIAKKLGLPEGAEITEIERVPSAGGSA [r15_167_TrROS_Hall] | 2.83 ± 0.075 | 2.71 ± 0.035 | 2.97 ± 0.067 |

| Sequence | folding stability dG unfold [1] [kcal/mol] | folding stability dG unfold [2] [kcal/mol] | folding stability dG unfold [3] [kcal/mol] |
| --- | --- | --- | --- |
| SAGGMKKTVTITITEELPTETGEYKTKTVTTTLTVTPPPPEVTEEEKLREKALKENPNVSPDDPKALLSAGG [r13_136_JUSTAS] | 0.153 ± 0.14 | 0.535 ± 0.11 | -0.948 ± 0.6 |
| SAGGSAGGSEKEIVLVVKSKEDALKAAEELAKALGLEVEVEVIEVKTLENGEKYVVVKITIKDSAGGSAGGS [r12_924_TrROS_Hall] | 3.74 ± 0.2 | 3.7 ± 0.091 | 3.75 ± 0.16 |
| SAGGMTITVKPPDGTVITYTSETLPEIIAKLDPNGTYTITIEVPKVDPSNGGARPIVKTYTVPKERISAGGS [r16_806_JUSTAS] | 1.19 ± 0.17 | 1.21 ± 0.17 | 0.865 ± 0.11 |
| SAGSAEEIAKKLAEELRKAGYEVKVKVVEVEKVGDGKVVVRVEIEVTYYDKNGKPVKKERFELTIVLPSAGG [r19_418_TrROS_Hall] | 4.25 ± 0.19 | 4.69 ± 0.27 | 2.99 ± 0.12 |
| SAGGSAGGSAGGPWITIPLPPGEEYKIENKGNGKEQEINPNDGSIVIPNIPPDNAKVERESAGGSAGGSAGG [r7_200_TrROS] | 0.232 ± 0.14 | -0.177 ± 0.24 | 0.179 ± 0.041 |
| SAGGSASLEELAEKLREKLPPEEAEKLRELLKELEEKGYEIVEIRIEVLPNGEKKVTIKLKVKKKPSAGGSA [r15_613_TrROS_Hall] | 3.41 ± 0.17 | 3.32 ± 0.26 | 3.34 ± 0.2 |
| SAGGSAGGKRKIEIHIIIPPGMPPEWRKKAIEIAKWFAKTLAQENNREVEIKIEIFVLDGMPPWSAGGSAGG [r6_204_TrROS] | 3.6 ± 0.33 | 3.71 ± 0.076 | 2.82 ± 0.19 |
| SAGGAPGVPSVTVIPFDPSTGRALALVVDGDRVYVISSAVPLEVLRELGVDRVEPLPDGTLVAVSLASAGGS [r8_382_TrMRF] | 1.38 ± 0.041 | 1.49 ± 0.027 | 1.13 ± 0.02 |
| SAMKLSPELLKKLGLSKEDIKEIEIEVEPVPELSEEDLKKKNVTVYKVKIKIKVNGKEYEVELLFVEPKSAG [r14_483_TrROS_Hall] | 2.18 ± 0.15 | 2.49 ± 0.18 | 1.83 ± 0.07 |
| SEAEIKIKEVDENGYLVLEIKVPKEEVEKLREKLKELFPNAEIVEVKYDEETGEVTIIVRLPDGKLYEFKSA [r9_1164_TrROS_Hall] | 1.06 ± 0.13 | 1.05 ± 0.099 | 1.05 ± 0.076 |
| SAGDMIKIPFNFKDPNGAKPKELEVMISPDPGVITAMFKYKHNNEPKYYMISIPIDPGNGKIEIEIQPMSAG [r5_136_TrROS] | 1.46 ± 0.12 | 1.65 ± 0.17 | 1.2 ± 0.058 |
| SAGGSAGGSMLPADTKVIKITVESTLPDGSTTTHTVTVPSSVPLEAVKEQLPPGATITEVVLASAGGSAGGS [r12_597_JUSTAS] | 1.16 ± 0.059 | 0.931 ± 0.011 | 1.44 ± 0.064 |
| SAGGSAGGSAGAKKLPPGQVALRIEPVTVTVTDEDGKERTVTRIRLVDAATGEEYEFTFPSAGGSAGGSAGG [r17_266_TrROS_Hall] | 0.744 ± 0.15 | 0.531 ± 0.1 | 0.829 ± 0.1 |
| SAGGMTYVLPNGERLLVRVSVRTEPRLDPDRPELVLEPRVEIELFAVSPDLTLRPVPEELARELFEKESAGG [r13_809_TrMRF] | 1.21 ± 0.044 | 1.33 ± 0.07 | 0.891 ± 0.019 |
| SAGMFVKIKFKTADKTVEELVKKIKEETGIPENAKITVIAEKSEDEGFVVIIEFDEEEVRDKIKEIVGSAGG [r19_215_TrMRF] | 1.45 ± 0.087 | 1.35 ± 0.062 | 1.52 ± 0.026 |
| SAGGSAKIVIKPDGTIEVEVNGKTFTFPPGAEIEIEEKDGELVLRIRLFNKDGKEVEEFEVTVRIESAGGSA [r15_424_TrROS_Hall] | 5.48 ± 0.18 | 5.51 ± 0.18 | 4.36 ± 0.19 |
| SAGGMIVANVNPETDKVTLLITRPVVLYDEETGELREEEVTLVITASLEELEKLEEESGLPLLIIPSSAGGS [r8_337_TrMRF] | 1.92 ± 0.15 | 2.16 ± 0.071 | 1.63 ± 0.1 |
| SAGSKEALLSDPSFEPVEVEIHLEIEVPGVTPEEAEAIAKELEKEITEELKKKGIKNVKVTVTIRYVERSAG [r5_431_JUSTAS] | 2.24 ± 0.071 | 2.49 ± 0.057 | 1.71 ± 0.044 |
| SAGMLSSETVPFPDSEITIEYDPETGTVKITTTTTTSSPSLDYRTGKPGSVSSSTTTSFEVEAEPGAELSAG [r5_195_JUSTAS] | 0.254 ± 0.18 | 0.323 ± 0.17 | 0.0129 ± 0.076 |
| SAGGSAMITLEVEVPPGNAEEAAEAVAEELAEKLGVEVTIEKVEVEYDPVTNLTRVPVEIKINPPLSAGGSA [r15_70_JUSTAS] | 0.618 ± 0.24 | 0.557 ± 0.11 | 1.18 ± 0.071 |
| SKKVTLPIRFPWNGWEIEITAEELAEKKGLDPEDLTIHVVMPGPGWMYTIKIDPDGIEIEPIGPVPPNDMSA [r9_819_TrROS] | 2.54 ± 0.074 | 2.951 ± 0.026 | 1.45 ± 0.029 |
